The values below come from patent US11542481B2, “Morphinan N-demethylase isolated from the methylobacterium thebainfresser and methods of use thereof” (priority 2017, dated 2023).

The format of data set [1] is cell-based, E. coli. To be noted: BL21 Star (DE3) cells, toluene treated, 20 μM thebaine, overnight 30° C.
Data set [2] can be described thus: MND enzyme temperature optimum assay. It counts as biochemical. The following applies: 20 min assays at 20° C.-80° C., pH 8.0, 7.5 μM thebaine. How it is done: Enzyme assays with 100 μl purified MND enzyme (˜36 μg), 7.5 μM thebaine, and 30 mM potassium phosphate pH 8.0 in a total assay volume of 200 μl were performed in duplicate and allowed to incubate at the following temperatures for 20 minutes: 20° C., 25° C., 30° C., 40° C., 50° C., 60° C., 70° C. and 80° C. Assays with purified pET28a empty vector control were included at each temperature. Assays were quenched by the addition of 400 μl MeOH followed by rapid mixing for 30 s then subject to centrifugation (16,000×g, 30 min, RT). Samples were diluted further (total of 50 fold dilution) to achieve an analyte concentration of 0.15 μM prior to filtration (low protein binding 0.2 μm, 4 mm, PTFE; Millipore) and introduction into the QTRAP 6500 using Method 1.

Data set [3] in a line: MND enzyme pH optimum assay. The format is biochemical. The following applies: 20 min. How it is done: Enzyme assays with 100 μl purified MND enzyme (˜36 μg), 7.5 μM thebaine, and 60 mM buffer (citrate buffer pH 4 and pH 5, potassium phosphate buffer pH 6.0, pH 7.0, and pH 8.0, and glycine-NaOH buffer pH 9, pH 10, and pH 10.5) in a total assay volume of 200 μl were allowed to incubate at 30° for 20 minutes. Assays with no enzyme and a purified pET28a empty vector control in pH 8.0 were included. The remaining protocol was the same as for the temperature optimum above. A supplemental pH assay was run in the same manner as above to verify the low pH results using a glycine-HCL buffer for pH 2, 3, and 4 and citrate buffer for pH 4, 5, and 6.

Data set [4] is described as follows: MND enzyme stability assay. It counts as biochemical. To be noted: pre-incubated at 30° C. in assay buffer pH 7.0 up to 72 hours, then 20 min with thebaine. The method, then: 100 μl purified MND enzyme (˜36 μg) was incubated in 30 mM potassium phosphate buffer pH 7.0 at 30° C. for 72, 48, 24, 6, 3, and 1 hours prior to addition of 1500 pmol thebaine in a total volume of 200 μl. The assay was allowed to proceed for 20 minutes after substrate addition and was processed and analyzed as in section 23.0.

A short description of data set [5]: Proteinase K treatment and cofactor addition, conversion of thebaine to northebaine. The format is biochemical. The following applies: 1 hour Proteinase K digestion before 20 min assay, pH 7.0. The method, then: The first of two assays performed included adding 1500 pmol FAD to the 200 MND enzyme assay including 100 μl purified MND (˜36 μg) and 1500 pmol thebaine in 30 mM potassium phosphate buffer pH 7.0 with and without a prior 1 hour digest (of MND enzyme) with Proteinase K. Controls included a no enzyme control, FAD addition to a no enzyme control, a pET28a empty vector control, a pET28a empty vector control with FAD, and a pET28a empty vector control digested with Proteinase K followed by FAD addition. Assays were allowed to incubate for 20 minutes and then processed as in section 23.0. A second set of assays was performed, in duplicate, to validate the results found in the previous assay in addition to testing more cofactors. This assay included the following conditions; MND enzyme, MND enzyme pre-digested with Proteinase K for 1 hour, MND enzyme digested with Proteinase K in the presence of 1% SDS and 10 mM EDTA, MND enzyme with 1% SDS and 10 mM EDTA (no Proteinase K pre-digestion), pET28a empty vector, pET28a empty vector pre-digested with Proteinase K for 1 hour, pET28a empty vector digested with Proteinase K in the presence of 1% SDS and 10 mM EDTA, MND enzyme with the addition of 1500 pmol FMN, pET28a empty vector with the addition of 1500 pmol FMN, MND enzyme with the addition of 1500 pmol PLP and pET28a empty vector with the addition of 1500 pmol PLP. Assays were allowed to proceed for 20 minutes prior to processing and quantitation as described in section 23.0.

Data set [6] can be described thus: MND solvent stability assays. The format is biochemical. The following applies: for reduction in activity: pH 7.0, 30° C., 20 min. How it is done: FIG. 27. […] Enzyme assays with 5% and 25% of DMSO, methanol, chloroform, tetrahydrofuran, toluene, heptane, and diethyl ether were performed in duplicate and contained 30 mM potassium phosphate buffer pH 7.0, 36 μg purified enzyme, and 1500 pmol of thebaine. Assays were allowed to proceed for 20 min at 30° C. and analyzed by LC-MS/MS using the QTRAP 6500.
Enzymes used in pharma manufacturing must withstand harsh conditions and tolerate solvents, especially if the substrate is insoluble in water (FIG. 27). MND activity was tested in the following solvents at 5% and 25% concentration: DMSO, methanol, chloroform, tetrahydrofuran, toluene, heptane, and diethyl ether.

B1: MND enzyme: morphinan N-demethylase identified from the Methylobacterium Thebainfresser, amino acid sequence SEQ ID NO: 2, His-tagged, expressed in E. coli (protein)
chain: MTEKTPKLGSEAANKLGLEADISRRDMVGGVLIGAGAALLASVAPGAINRALAEGPSRLPPVRGSGTGWRGIEIADDWQGPGGIGDYSKSNGNTGKVIRDAHAGIRNHEFEKRLATASDVNEKYDVIIVGAGISGLHSAYDLLRQRPNIKILMLDNHAIFGGEAKQNKMEVDGQALYGGQGPTLYSFVGDDLPSWKGNPALASIMELKTYPKEFGLPTETTWSDKKTDVKVPVDLWFSMASPSQTDIAYRWEGSGLVKNPLLNSFRDAPVSQKSKDAIALMLAVDNGAKRPVEPVGDVSTWVDNMTYAEFLKKVYGADDEAVQLVDQIDVVGTAGLGGDVFNASLAALGLNQYGGIELWNGGLQGLSLPTGNGGVGRSILRKFMPGAIKGGTSLTDTLFGDVNWDVLDHANNNVRIRLNSTVVGVQNNETPTGTKDATVFFLHDNRLYKAKGKAVIMGTPQQVNRNVCLNLPNHLSEAMGDFHHAPILVVNVALRNWKSMEKAGVSGLRWFGEYPGIGQIVRSMVIDGKEIMPCDPSKPAVMTFYIPMNQATRGMPRGEQAMTARHMLFNLTFADIELLIRDQLTRAFGSYGFDAKRDIAAIVANRWGHALVCAGPGFYTGLNGKPPVSKVITAGWDRVAFGHSDLSGRQAWTVAVNYARTAVANVFPKI
modifications: His tag; Methylobacterium Thebainfresser
Consider B1, for which the “morphinan N-demethylase activity (northebaine production, in words)” value in data set [1] is “showed morphinan N-demethylase activity”. Besides, the “temperature of highest northebaine accumulation” value in data set [2] turned out to be 60 °C. Further, the “northebaine production at pH 4 compared with pH 5-10.5” value in data set [3] (citrate buffer pH 4, 30° C., not observed in glycine-HCL buffer) is reported as “nearly twice as much”. For the same molecule, the “difference in northebaine production within the pH range” value in data set [3] (pH range of 5-10.5, 30° C.) was “no significant difference”. Further, in data set [4], the “ability to demethylate thebaine after pre-incubation (stability)” value is reported as “maintained its ability to demethylate thebaine”. Also, the “amount of northebaine produced after Proteinase K treatment of the enzyme” value in data set [5] is listed as “increased”. The “activity (in words)” value in data set [6] (5% DMSO) is listed as “little to no reduction in activity”; in data set [6] (5% methanol) it was “little to no reduction in activity”; in data set [6] (5% toluene) it was “little to no reduction in activity”; in data set [6] (25% chloroform) it was “completely abolished”; in data set [6] (25% tetrahydrofuran) it was “completely abolished”; in data set [6] (heptane, outlier, heptane sat on top of the reaction), “no reduction in activity”. For the same molecule, the reduction in activity in data set [6] (25% DMSO) is listed as 21%; in data set [6] (25% methanol), 43%; in data set [6] (25% toluene), 44%; in data set [6] (diethyl ether (25%)), 66%.
